Test results: the Human Domainome abundance scans (Beltran et al. 2025)

B1: SAM and SH3 domain-containing protein 1, residues 630 to 700; numbered along this chain, O94885 (parent)
chain: GRPPQPKSVEDLLDRINLKEHMPTFLFNGYEDLDTFKLLEEEDLDELNIRDPEHRAVLLTAVELLQEYDSN
B2: Proto-oncogene vav, residues 782 to 842; numbered along this chain, P15498 (parent)
chain: KYFGTAKARYDFCARDRSELSLKEGDIIKILNKKGQQGWWRGEIYGRVGWFPANYVEEDYS

Variants of: B1
Experiment: abundance fitness (aPCA) (normalised: wild type 0, dead -1); higher = more abundant; growth selection in yeast, the domain comes from the species named
Details: Homo sapiens

Abundance fitness of substitutions, site by site:
R55: N -0.891, P -0.895, Q -0.5, S -0.731, T -0.89, V -0.591, W -1.14, Y -0.935
A56: C -0.272, D -0.096, E 0.085, G -0.337, H -0.057, K 0.265, L -0.334, M -0.213, N -0.108, P -0.772, R 0.191, S 0.011, T -0.114, V -0.493, W -0.816, Y -0.605
V57: A 0.394, C 0.107, D 0.089, E 0.196, F -0.747, G -0.195, H -0.166, I -0.059, L 0.199, M 0.067, N 0.15, P -0.484, Q 0.251, R 0.418, S 0.243, T 0.232, W -0.397
L58: A -0.531, C -0.82, D -0.347, F -0.596, G -0.667, H -0.53, I 0.167, K -0.588, M -0.717, N -0.51, P -0.501, Q -0.468, R -0.651, S -0.516, T -0.72, V -0.53, W -0.819, Y -0.905
L59: A -0.569, C -0.678, D -0.577, F -0.792, G -0.511, H -0.564, I -0.525, K -0.206, M 0.001, N -0.491, P -0.445, Q -0.478, S -0.514, T -0.562, V -0.735, W -0.822, Y -0.823
T60: A 0.242, C -0.293, D 0.245, E 0.398, F -0.613, G 0.071, H 0.302, I -0.927, L -0.579, M -0.385, N 0.348, P -0.63, Q 0.266, R 0.237, S 0.227, V -0.735, W -0.378, Y -0.449
A61: C -0.483, D -0.787, E 0.074, F -0.759, H -0.497, I -0.983, L -0.997, M -0.324, N -0.479, P -0.731, Q -0.036, R -0.904, S -0.225, T -0.479, V -0.644, W -0.287, Y -0.609
V62: A -0.091, C -0.241, D -0.607, E -0.489, F -0.916, G -0.524, H -0.596, I -0.14, K 0.005, L -0.647, M -0.648, N -0.578, P -0.517, Q -0.769, T -0.476, W -0.8, Y -0.82
E63: A 0.034, D -0.058, F -0.866, G -0.15, H -0.075, I -0.898, K 0.244, L -0.587, M -0.492, N -0.066, Q -0.018, R 0.133, S 0.004, T -0.226, V -0.831, W -0.751, Y -0.687
L64: A 0.343, C 0.019, D 0.33, E 0.483, F -0.117, H 0.222, I -0.393, K 0.264, M 0.193, N 0.295, P -0.595, R 0.199, S 0.31, T 0.166, V -0.234, W 0.148
L65: A -0.625, C -0.538, D -0.511, E -0.758, F -0.696, G -0.808, H -0.853, I -0.433, K -0.812, N -0.841, P -0.88, Q -0.707, R -0.82, S -0.69, T -0.767, V -0.452, W -0.959, Y -0.961
Q66: A -0.317, C -0.448, D -0.49, E -0.623, F -0.694, G -0.197, H -0.035, I -0.563, K 0.267, L -0.351, M -0.422, N 0.059, P -0.673, R 0.33, S -0.331, T -0.347, V -0.587, W -0.21
E67: A -0.082, C -0.3, D 0.02, F -0.609, G -0.107, H -0.165, I -0.492, K -0.094, L -0.468, M -0.342, N -0.1, P -0.457, R -0.167, S 0.039, T -0.048, V -0.232, W -0.438, Y -0.396
Y68: A 0.245, C 0.105, D 0.076, E 0.21, G 0.168, I -0.191, K 0.054, L -0.068, M 0.025, N 0.138, P 0.015, Q 0.254, R 0.094, S 0.14, T 0.031, V -0.038, W -0.056
D69: A -0.386, C -0.479, F -0.811, G -0.132, H -0.327, I -0.836, K -0.29, M -0.822, N -0.289, P -0.081, Q -0.262, R -0.531, S -0.296, T -0.358, V -0.971, W -0.752, Y -0.644
S70: F -0.508, T 0.422
N71: A 0.116, C -0.009, D 0.197, E 0.163, F -0.117, G 0.041, H 0.056, I -0.117, K 0.007, M -0.071, P 0.005, Q 0.121, R 0.087, V 0.035, W -0.256, Y -0.132

Variants of: B2
Experiment: as above
Details: Homo sapiens

Abundance fitness, by site and new letter:
K1: A -0.456, D -0.437, E -0.16, F -0.159, G -0.227, H -0.109, L -0.21, N 0.099, P -0.822, Q 0.088, R -0.643, S -0.198, T -0.27, V -0.241, W -0.474, Y -0.261
Y2: C -0.229, D 0.021, E -0.238, F 0.061, G -0.15, H -0.138, I -0.097, K -0.392, L -0.323, M -0.082, N 0.228, P -0.212, R -0.226, S -0.033, T -0.138, V -0.247, W -0.36
F3: C -0.105, D -0.274, E -0.192, G -0.268, H -0.396, I 0.058, K -0.103, L 0.027, M -0.054, N -0.173, P -0.232, R -0.145, S -0.167, T -0.063, V -0.029, W -0.166, Y -0.009
G4: A -0.163, C -0.274, D -0.083, E -0.298, F -0.348, H -0.292, I -0.238, L -0.247, M -0.164, N -0.166, P 0.011, Q -0.151, R -0.183, S -0.111, T -0.089, W -0.169, Y -0.213
